Test results as given in IntAct's records for PubMed 20168298.

Target: T1, pkd2_human PKD2 (UniProt Q13563)
T1 sequence: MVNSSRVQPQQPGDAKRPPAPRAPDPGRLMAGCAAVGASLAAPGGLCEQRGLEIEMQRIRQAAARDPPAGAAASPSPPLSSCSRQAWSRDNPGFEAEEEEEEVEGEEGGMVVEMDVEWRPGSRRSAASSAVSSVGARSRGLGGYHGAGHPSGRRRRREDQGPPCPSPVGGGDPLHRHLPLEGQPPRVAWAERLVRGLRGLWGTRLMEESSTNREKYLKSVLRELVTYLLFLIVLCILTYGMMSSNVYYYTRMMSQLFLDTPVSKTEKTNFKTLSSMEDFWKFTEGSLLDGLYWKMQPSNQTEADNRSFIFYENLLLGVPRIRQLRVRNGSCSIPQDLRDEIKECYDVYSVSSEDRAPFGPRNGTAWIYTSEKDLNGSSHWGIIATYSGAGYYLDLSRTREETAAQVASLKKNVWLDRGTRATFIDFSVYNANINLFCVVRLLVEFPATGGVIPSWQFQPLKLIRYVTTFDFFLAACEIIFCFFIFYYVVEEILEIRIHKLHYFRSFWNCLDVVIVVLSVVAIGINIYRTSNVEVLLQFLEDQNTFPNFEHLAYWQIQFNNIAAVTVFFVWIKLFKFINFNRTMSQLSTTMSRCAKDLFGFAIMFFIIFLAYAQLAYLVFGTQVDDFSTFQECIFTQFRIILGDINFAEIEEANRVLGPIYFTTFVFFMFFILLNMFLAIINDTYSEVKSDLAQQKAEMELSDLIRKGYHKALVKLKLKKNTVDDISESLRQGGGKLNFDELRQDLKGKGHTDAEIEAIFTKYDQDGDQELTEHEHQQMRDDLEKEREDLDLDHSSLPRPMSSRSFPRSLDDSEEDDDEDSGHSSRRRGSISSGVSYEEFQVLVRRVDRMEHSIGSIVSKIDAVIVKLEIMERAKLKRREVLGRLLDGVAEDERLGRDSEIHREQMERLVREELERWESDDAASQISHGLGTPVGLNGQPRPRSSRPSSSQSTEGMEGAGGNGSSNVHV

Polycystin-1 (Homo sapiens) (from UniProt P98161) Q4225P
effect of a mutation on the interaction: disrupting interaction
